Target: human IL-12 receptor on cells (human) (UniProt P42701)
Test: cell-based or functional assay

Chain of human IL-12 receptor on cells (human) (Q99665 24-862, chain 2 of 2, other chains not shown): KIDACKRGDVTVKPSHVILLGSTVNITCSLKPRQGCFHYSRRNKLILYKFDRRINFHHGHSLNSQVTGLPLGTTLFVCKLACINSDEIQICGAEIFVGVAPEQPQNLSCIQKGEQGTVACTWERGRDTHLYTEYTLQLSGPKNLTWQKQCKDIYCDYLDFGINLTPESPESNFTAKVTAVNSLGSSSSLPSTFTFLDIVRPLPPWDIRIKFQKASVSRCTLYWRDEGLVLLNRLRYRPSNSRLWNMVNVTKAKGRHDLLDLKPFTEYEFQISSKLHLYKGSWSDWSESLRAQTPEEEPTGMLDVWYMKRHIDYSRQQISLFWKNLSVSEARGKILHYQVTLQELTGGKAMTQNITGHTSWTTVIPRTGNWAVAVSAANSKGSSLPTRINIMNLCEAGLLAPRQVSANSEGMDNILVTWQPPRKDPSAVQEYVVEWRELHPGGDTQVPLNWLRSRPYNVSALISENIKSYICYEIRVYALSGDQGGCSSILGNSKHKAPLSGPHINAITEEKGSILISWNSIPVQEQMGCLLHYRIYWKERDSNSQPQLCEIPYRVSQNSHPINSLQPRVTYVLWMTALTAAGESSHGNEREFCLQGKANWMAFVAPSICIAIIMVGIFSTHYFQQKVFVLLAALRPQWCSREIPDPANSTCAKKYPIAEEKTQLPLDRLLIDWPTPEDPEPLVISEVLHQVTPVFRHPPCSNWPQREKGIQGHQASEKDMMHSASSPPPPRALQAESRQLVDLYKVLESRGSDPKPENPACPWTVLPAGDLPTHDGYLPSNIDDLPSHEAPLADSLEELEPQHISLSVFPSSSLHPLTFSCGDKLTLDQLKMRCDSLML

EC50 (ug/ml) hIL12R+ PD1+ cells (pSTAT4 reporter cell line, PD1-positive): 0.03 µg/ml
EC50 (ug/ml) hIL12R+ cells (pSTAT4 reporter cell line, PD1-negative): 0.1 µg/ml
Substance: WT IL-12 (row of Table 10)

Source: patent US20240010696A1
